# PMC7972811
# Columns and labels:
# [1] = target: SARS-CoV-2 spike S2P (ectodomain of the SARS-CoV-2 S trimer) (SARS-CoV-2, ancestral (P0DTC2 sequence))
# [2] = target: SARS-CoV-2 spike S2P (ectodomain of the SARS-CoV-2 S trimer) (SARS-CoV-2, ancestral (P0DTC2 sequence)); assay: SPR
substance,measurement,setting,value
2-15 IgG with the paratope somatic hypermutation Y32F (light chain) reverted to germline (antibody),"pseudovirus neutralization potency, fold reduction against 2-15 IgG",[1],42 fold
same,fold reduction of binding affinity against 2-15 IgG,[2],12 fold
